Reference: publication PMC5240640

Key:
[1] = molecular target: His-tagged FcγRI (R&D Systems, cat no. 1257-FC) (UniProt P12314); assay: AlphaScreen or HTRF; competitive: biotinylated human IgG1 (200 ng/mL) on streptavidin donor beads, His-tagged FcγR (200 ng/mL) on nickel chelate acceptor beads, unlabeled competitor antibody in serial dilutions; 1xPBS, 0.05% BSA, 0.01% Tween 20, pH 7.2; RT 1 h; IC50 interpolated at 50% maximal activity
[2] = molecular target: His-tagged FcγRIIa (R&D Systems, cat no. 1330-CD/CF) (UniProt P12318); assay: as above
[3] = molecular target: His-tagged FcγRIIIa (R&D Systems, cat no. 4325-FC) (UniProt P08637); assay: as above
[4] = molecular target: His-tagged FcγRIIIa (R&D Systems, cat no. 4325-FC) (UniProt P08637)
[5] = molecular target: His-tagged FcγRIIIa (R&D Systems, cat no. 4325-FC) (UniProt P08637); remark: listed apart in the source

| IC50 [1] | IC50 [2] | IC50 [3] | ADCC against H1975 cells with donor PBMCs, EC20 (antibody concentration needed to elicit 20% lysis) [4] | ADCC against H1975 cells with donor PBMCs, Emax (% compared to complete lysis) [4] | ADCC against HCC-827 cells with donor PBMCs, EC20 (antibody concentration needed to elicit 20% lysis) [5] | ADCC against HCC-827 cells with donor PBMCs, Emax (% compared to complete lysis) [5] | Substance |
| --- | --- | --- | --- | --- | --- | --- | --- |
| 9.2 nM | 946 nM | 10 nM | 0.0015 nM | 59% | 0.0376 nM | 31% | JNJ-61186372 - LF (EGFR x c-Met bispecific antibody, low fucose) |
| 8.7 nM | 1270 nM | 32.4 nM |  |  |  |  | IgG1 isotype - NF (antibody) |
| 11.6 nM | 1080 nM | 38.1 nM | 0.15 nM | 40% | 0.645 nM | 30% | JNJ-61186372 - NF (EGFR x c-Met bispecific antibody, normal fucose) |
